Assay results reported in US20150322137A1 (EVEC, published 2015).

How the values were obtained:
[1] = target: T1, F protein of human metapneumovirus strain JPS05-21 (type B2), on infectious virus (human metapneumovirus, strain JPS05-21 …); assay: cell-based or functional assay
[2] = target: T2, F protein of human metapneumovirus strain JPS03-178 (type A2), on infectious virus (human metapneumovirus, strain JPS03-178 …); assay: cell-based or functional assay
[3] = target: T3, F protein of human metapneumovirus strain JPS02-76 (type B1), on infectious virus (human metapneumovirus, strain JPS02-76 …, UniProt Q6WB98 19-539); assay: cell-based or functional assay
[4] = target: T4, F protein of human metapneumovirus strain JPS03-180 (type A1), on infectious virus (human metapneumovirus, strain JPS03-180 …); assay: cell-based or functional assay
[5] = target: FP-TM(-)-His, His-Tag-added hMPV (JPS02-76) FP lacking the transmembrane region (amino acid residues 491 to … (human metapneumovirus, strain JPS02-76 …, UniProt Q6WB98 19-490)); assay: SPR, Biacore T-200; antibody captured by anti-human IgG, FP-TM(-)-His as analyte
[6] = target: T1, F protein of human metapneumovirus …; assay: cell-based or functional assay; remark: listed apart in the source
[7] = target: T2, F protein of human metapneumovirus …; assay: cell-based or functional assay; remark: listed apart in the source
[8] = target: T4, F protein of human metapneumovirus …; assay: cell-based or functional assay; remark: listed apart in the source
[9] = target: T1, F protein of human metapneumovirus …; assay: cell-based or functional assay; remark: listed apart in the source
[10] = target: T3, F protein of human metapneumovirus …; assay: cell-based or functional assay; remark: listed apart in the source
[11] = target: T4, F protein of human metapneumovirus …; assay: cell-based or functional assay; remark: listed apart in the source
[12] = target: T1, F protein of human metapneumovirus …; assay: cell-based or functional assay; remark: listed apart in the source
[13] = target: T2, F protein of human metapneumovirus …; assay: cell-based or functional assay; remark: listed apart in the source
[14] = target: T3, F protein of human metapneumovirus …; assay: cell-based or functional assay; remark: listed apart in the source
[15] = target: T4, F protein of human metapneumovirus …; assay: cell-based or functional assay; remark: listed apart in the source
[16] = target: T3, F protein of human metapneumovirus …; assay: cell-based or functional assay; remark: listed apart in the source

B1: EV046116 (antibody, human IgG1, kappa, V domains shown)
VH: QVQLQESGPGLVKPSETLSLTCTVSGGSISRDYWSFIRQPAGKGLEWIGRIYHNGDTNYNPSLKSRVTMSQDTSKNQFFLRLRHVTAADTAVYYCAREGSAGTFGQADWGQGTLVIVYS
VL: EIVMTQSPATLSVSPGERATLSCRASQSISNNLAWYQQKPGQAPRLLIYGASTRATGIPARFSGGGSGTEFTLTISSLQSEDFAVYYCQQYENWLLYTFGQGTKLEIKR
[1]
  IC60, neutralizing activity (hMPV infection of LLC-MK2 cells; GraphPad Prism 6): 0.341 µg/mL
[2]
  IC60, neutralizing activity (hMPV infection of LLC-MK2 cells; GraphPad Prism 6): 0.247 µg/mL
[3]
  IC60, neutralizing activity (hMPV infection of LLC-MK2 cells; GraphPad Prism 6): 0.497 µg/mL
[4]
  IC60, neutralizing activity (hMPV infection of LLC-MK2 cells; GraphPad Prism 6): 0.428 µg/mL
[5]
  Kd: 1.62 nM
  koff: 0.000408 s⁻¹
  kon: 252000 M⁻¹ s⁻¹
[6]
  IC50, neutralizing activity (hMPV infection of LLC-MK2 cells; GraphPad Prism 6): 0.279 µg/mL
[7]
  IC50, neutralizing activity (hMPV infection of LLC-MK2 cells; GraphPad Prism 6): 0.19 µg/mL
[8]
  IC50, neutralizing activity (hMPV infection of LLC-MK2 cells; GraphPad Prism 6): 0.351 µg/mL
[9]
  IC50, neutralizing activity (hMPV infection of LLC-MK2 cells): 0.25 µg/mL
[10]
  IC50, neutralizing activity (hMPV infection of LLC-MK2 cells): 0.25 µg/mL
[11]
  IC50, neutralizing activity (hMPV infection of LLC-MK2 cells): 0.31 µg/mL
[12]
  IC90, neutralizing activity (hMPV infection of LLC-MK2 cells; GraphPad Prism 6): 0.828 µg/mL
[13]
  IC90, neutralizing activity (hMPV infection of LLC-MK2 cells; GraphPad Prism 6): 0.8 µg/mL
[14]
  IC90, neutralizing activity (hMPV infection of LLC-MK2 cells; GraphPad Prism 6): 3 µg/mL
[15]
  IC90, neutralizing activity (hMPV infection of LLC-MK2 cells; GraphPad Prism 6): 1.03 µg/mL
[16]
  IC50, cell-to-cell spread inhibitory activity (LLC-MK2 cells stably expressing TMPRSS2): 0.054 µg/mL
  IC90, cell-to-cell spread inhibitory activity (LLC-MK2 cells stably expressing TMPRSS2): 0.132 µg/mL

B2: EV046150 (antibody, human IgG1, kappa, V domains shown)
VH: RVQLVQSGAEVKKPGSSVRVSCKASGGTFSNYSISWVRQVPGQGLEWMGRIIPILPLSSYPQQFQGRVAITADKSSTTAYMELSSLRIEDTAIYYCARDALRPEGGYYYYYFDVWGTGTTVTVSS
VL: EIELTQSPGTLSLSPGERATLSCRANQIIGDTSLAWYQQKPGQAPRLLIFGASSRATGIPDRFSGSGFGSDFTLTITSLEPEDFAVYYCQQYGSSPTFGQGTKVEIKR
[1]
  IC60, neutralizing activity (hMPV infection of LLC-MK2 cells; GraphPad Prism 6): 0.229 µg/mL
[2]
  IC60, neutralizing activity (hMPV infection of LLC-MK2 cells; GraphPad Prism 6): 0.0373 µg/mL
[3]
  IC60, neutralizing activity (hMPV infection of LLC-MK2 cells; GraphPad Prism 6): 0.36 µg/mL
[4]
  IC60, neutralizing activity (hMPV infection of LLC-MK2 cells; GraphPad Prism 6): 0.0823 µg/mL
[6]
  IC50, neutralizing activity (hMPV infection of LLC-MK2 cells; GraphPad Prism 6): 0.202 µg/mL
[7]
  IC50, neutralizing activity (hMPV infection of LLC-MK2 cells; GraphPad Prism 6): 0.0298 µg/mL
[8]
  IC50, neutralizing activity (hMPV infection of LLC-MK2 cells; GraphPad Prism 6): 0.0618 µg/mL
[9]
  IC50, neutralizing activity (hMPV infection of LLC-MK2 cells): 0.18 µg/mL
[10]
  IC50, neutralizing activity (hMPV infection of LLC-MK2 cells): 0.3 µg/mL
[11]
  IC50, neutralizing activity (hMPV infection of LLC-MK2 cells): 0.049 µg/mL
[12]
  IC90, neutralizing activity (hMPV infection of LLC-MK2 cells; GraphPad Prism 6): 0.404 µg/mL
[13]
  IC90, neutralizing activity (hMPV infection of LLC-MK2 cells; GraphPad Prism 6): 0.101 µg/mL
[14]
  IC90, neutralizing activity (hMPV infection of LLC-MK2 cells; GraphPad Prism 6): 0.663 µg/mL
[15]
  IC90, neutralizing activity (hMPV infection of LLC-MK2 cells; GraphPad Prism 6): 0.292 µg/mL
[16]
  IC50, cell-to-cell spread inhibitory activity (LLC-MK2 cells stably expressing TMPRSS2): 0.0166 µg/mL
  IC90, cell-to-cell spread inhibitory activity (LLC-MK2 cells stably expressing TMPRSS2): 0.065 µg/mL
